From US20030180295A1, “Angiocidin: a Cys-Ser-Val-Thr-Cys-Gly specific tumor cell adhesion receptor” (Philadelphia Health and Education Corporation, priority 1999, published 2003)
No end group written: not given here. *: point of attachment. Acm = CC(=O)NC*

Columns and labels:
[1] = molecular target: T1, biotin-angiocidin complex binding to TSP-1 (Homo sapiens, UniProt P55036, INS254GER); assay: Biotin-avidin receptor binding assay: competition; details: for competition of biotin-angiocidin binding to TSP-1: Example 23, FIGS. 29 and 30; for peptide competition of TSP-1 receptor binding: Example 25, peptide 1 mg/ml, FIG. 32
T1 sequence (P55036 with tags, fused parts or gaps INS254GER): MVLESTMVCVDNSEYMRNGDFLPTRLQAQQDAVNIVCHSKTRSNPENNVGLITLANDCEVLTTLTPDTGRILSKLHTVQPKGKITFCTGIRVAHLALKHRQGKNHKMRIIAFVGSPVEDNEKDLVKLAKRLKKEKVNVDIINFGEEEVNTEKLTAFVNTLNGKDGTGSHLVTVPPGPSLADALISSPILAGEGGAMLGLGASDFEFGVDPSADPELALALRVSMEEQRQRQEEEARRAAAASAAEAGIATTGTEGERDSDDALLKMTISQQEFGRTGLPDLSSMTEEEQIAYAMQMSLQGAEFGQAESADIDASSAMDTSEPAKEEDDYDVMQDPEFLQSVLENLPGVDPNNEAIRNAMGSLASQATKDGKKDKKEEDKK
Experimental: In the following experiments, TSP-1 was covalently bound to a substrate, biotinylated angiocidin was added to the plate, and avidin-peroxidase was added to measure how much biotinylated angiocidin was attached to the TSP-1. The avidin-peroxidase was measured using a spectrophotometer at an absorbance of 450 nm.
Free angiocidin was added to the system to compete with the biotinylated angiocid in. […] Immobilized BSA was used as a negative control.
The TSP-1 peptide Cys-Ser-Val-Thr-Cys-Gly (SEQ ID NO: 1) was added to the system to compete with the TSP-1 on the plate for binding with the biotinylated angiocidin. The scrambled peptide Val-Cys-Thr-Gly-Ser-Cys (SEQ ID NO: 15) was used as a negative control and had no effect.
The avidin-biotin system discussed above was used to evaluate the competitive effect of various peptides on the binding of TSP-1 and angiocidin. […] The scrambled peptide Val-Cys-Thr-Gly-Ser-Cys-Gly (SEQ ID NO: 21) and the d-orientation peptide d-Cys-Ser-Val-Thr-Cys-Gly (SEQ ID NO: 22) were used as negative controls.

TSP-1 [2] = molecular target: T2, TSP-1 (Homo sapiens, UniProt P07996); assay: Affinity Sensor System (resonant mirror biosensor): binding to TSP-1 coupled to cuvette; details: peptide alone, TSP-1 immobilized in cuvette
Experimental: (§1) Binding of undenatured (in the ligand blot protocol above, the receptor is denatured by SDS) recombinant receptor to TSP-1 was evaluated using the Affinity Sensor System, Cambridge, UK. This is an optical binding method that uses a cuvette to which either ligand or receptor is covalently coupled. A laser beam is used to detect bound proteins to the protein-derivatized cuvette surface. This method is highly sensitive and measures both the association and dissociation rate constants for ligand receptor interactions. The instrument assumes that one molecule of receptor binds one molecule of TSP-1 and calculates the dissociation constant (KD) according to the following relationships:
1) kass[R][TSP-1]=kdiss[R-TSP-1] at equilibrium, where kass is the second order rate constant for association and kdiss is the first order rate constant for dissociation
2) KD=[R][TSP-1]/[R-TSP-1]=kdiss/kass
3) [R-TSP-1]t=[R-TSP-1]eq[1-exp(-kont)], where the instrument response measure in arc seconds is proportional to receptor-TSP-1 complex R-TSP-1].
4) kon=kass[L]+kdiss where kon is the pseudo-first order rate constant for receptor TSP-1 interaction.
(§2) About 1 μg of TSP-1 was coupled to the cuvette through its amino groups to COOH groups on the cuvette surface. Unreacted groups on the cuvette surface were then blocked with ethanolamine and albumin. […] A dissociation constant of […] was calculated from a plot of the pseudo first order rate constant for association versus the concentration of the receptor, as shown in FIG. 7. Instrument response vs time readings shown in FIG. 8, where the instrument response is proportional to the concentration of receptor-TSP-1 complex, were used to plot the data points on FIG. 7.
(§3) […] The peptides used were Val-Cys-His-Ser-Lys-Thr-Arg (SEQ ID NO: 8), Val-Cys(Acm)-His-Ser-Lys-Thr-Arg (SEQ ID NO: 9), and Pro-His-Ser-Arg-Asn (SEQ ID NO: 10). The first two peptides are derived from the binding portion of the receptor, where it interacts with the Cys-Ser-Val-Thr-Cys-Gly (SEQ ID NO: 1) portion of the TSP-1 protein. The third peptide is a control.

[3] = tested on: Bovine aortic endothelial cells (BAEC); assay: ALAMAR BLUE cell viability assay; format: cell-based; details: for cell viability, angiocidin and fragments: Example 27, FIG. 34
Experimental: Bovine aortic endothelial cells (BAEC), human umbilical vein endothelial cells (HUVEC), fibroblast cells, A549 human lung carcinoma cells (A549), MDA-MB231 human breast carcinoma cells (MB231), MCF7 human breast carcinoma cells (MCF7) were treated with 37 μg/ml of receptor, or buffer alone, for 24 hours. Viability of the cells was measured using the ALAMAR BLUE™ assay, which measures the capacity of cells to metabolize the ALAMAR BLUE™ dye. The ALAMAR BLUE™ assay (available from Biosource International, Camarillo, Calif.) quantitatively measures the proliferation of cell lines and can establish the relative cytotoxicity of chemical agents. The assay incorporates a fluorometric/colorimetric growth indicator based on detection of metabolic activity. The system incorporates an oxidation-reduction (redox) indicator that both fluoresces and changes color in response to chemical reduction of growth medium resulting from cell growth. This causes the redox indicator to change from its oxidized, non-fluorescent, blue form to its reduced, fluorescent, red form. Data can be collected using either fluorescence-based instrumentation (530-560 nm excitation wavelength and 590 nm emission wavelength) or absorbance-based instrumentation (570 nm and 600 nm).
BAEC and BSM cells were treated with increasing concentrations of angiocidin (0, 0.625, 1.25, 2.5, 5, 15, 26 and 37 μg/ml) for 24 hours. Cell viability was measured using the ALAMAR BLUE Tm assay. […] In contrast, BSM cells are unaffected.
The methods of Example 21 were followed, except BAEC cells were used. Additionally, TSP-1 was added at both 20 μg/ml and 5 μg/ml.
As discussed in Example 19 above, angiocidin was added to BAEC cells. Fragments of angiocidin were added as well. […] GST was used as a negative control. V36-R42, the active site of the antisecretory factor, had no effect, illustrating that angiocidin plays a different role from antisecretory factor.
Bovine aortic endothelial cells (BAEC) were cultured overnight in serum-free media containing either 37 μg/ml his-tagged angiocidin or his-tagged GST. Both angiocidin and GST were expressed in bacteria transformed with the pTrcHisA expression vector and purified on nickel affinity chromatography under non-denaturing conditions. Viability was measured by the ALAMAR BLUE™ assay.
This study examined the effect of anti-angiocidin antibody on angiocidin-mediated inhibition of BAEC viability. BAEC were cultured overnight in serum-free media containing either 5 μg/ml angiocidin, 5 μg/ml angiocidin plus 100 μg/ml control IgG, or 5 μg/ml angiocidin plus 100 μg/ml anti-angiocidin IgG. Viability was measured using the ALAMAR BLUE™ assay, described above.
The endothelial cells (BAEC) were incubated overnight 37 μg/ml of the angiocidin, fragments, and GST. Viability was measured using the ALAMAR BLUE™ assay.

B16-F10 Melanoma Cells = assay: Cell adhesion to immobilized receptor peptides; format: cell-based, mouse; details: Example 12, FIG. 14
Experimental: For the adhesion assay, in a 96 well plate, duplicate wells were covered with either TSP-1 (40 μg/ml), fibronectin (40 μg/ml), or and 1% bovine serum albumin (BSA). The wells were dried out overnight and then blocked with BSA. 100 μl of a suspension containing 2×10^5 cells were plated in the protein covered wells and incubated at 37^□ C. for 20 minutes to 1 hour. The non-adherent cells were removed and the wells were washed with a Hepes buffer. The adherent cells were fixed with 2.5% glutaraldehyde for 10 minutes and stained with 0.2% Giemsa. The stain was washed off and the cells were counted in a field of 1 mm square. Cells adhering to BSA were considered background while cells adhering to fibronectin were the positive control.
The method of Example 12 was followed except the receptor peptides Val-Cys-His-Ser-Lys-Thr-Arg (SEQ ID NO: 8) and Val-Cys(Acm)-His-Ser-Lys-Thr-Arg (SEQ ID NO: […]) were immobilized on the plates. TSP-1 and fibronectin were also immobilized on plates, as well as negative control peptides (Ala-Ser-Val-Thr-Ala-Arg (SEQ ID NO: 11) and Pro-His-Ser-Arg-Asn (SEQ ID NO: 10)) and bovine serum albumin. […] This provides support for the theory that another protein may be associated with TSP-1 and its receptor, or that the receptor is released and rebound to the membrane of the cell by another protein.

receptor-TSP-1 complex = molecular target: T3, receptor-TSP-1 complex (Homo sapiens, UniProt P55036, INS254GER); assay: Affinity Sensor System: peptide competition of receptor binding to immobilized TSP-1; details: 10 fold molar excess of peptide
T3 construct: Full length cDNA cloned in the PBK-CMV vector was used as a template; 6xHis (pTrcHisA leader) (N); made in house; host or cells: bacteria (pTrcHisA vector)
T3 sequence (P55036 with tags, fused parts or gaps INS254GER): T1 sequence (P55036 with tags, fused parts or gaps INS254GER)
Experimental: as §1, §2, §3

TSP-1 [4] = molecular target: T2, TSP-1; assay: Optical binding of angiocidin fragments to TSP-1 derivatized cuvette; details: test proteins at 10 nm in PBS buffer
Experimental: This study examines the amino terminal (Met1-Lys132) and carboxy terminal (IIe248-Lys380) portions of angiocidin (SEQ ID NOS: 24 and 25, respectively). The binding of undenatured recombinant angiocidin fragments was compared to full length angiocidin. GST was used as a negative control. Binding was evaluated using an optical binding method that uses a cuvette to which TSP-1 is covalently coupled. A laser beam was used to detect whether the test protein (fragments, angiocidin, or GST) is bound to the TSP-1 derivatized cuvette surface. The cuvette was derivatized with 1 μg of TSP-1. The cuvette surfaces were blocked with a 1% BSA solution to prevent nonspecific binding. The test proteins were added at a concentration of […] in a PBS buffer.

T2 sequence (P07996 19-1170): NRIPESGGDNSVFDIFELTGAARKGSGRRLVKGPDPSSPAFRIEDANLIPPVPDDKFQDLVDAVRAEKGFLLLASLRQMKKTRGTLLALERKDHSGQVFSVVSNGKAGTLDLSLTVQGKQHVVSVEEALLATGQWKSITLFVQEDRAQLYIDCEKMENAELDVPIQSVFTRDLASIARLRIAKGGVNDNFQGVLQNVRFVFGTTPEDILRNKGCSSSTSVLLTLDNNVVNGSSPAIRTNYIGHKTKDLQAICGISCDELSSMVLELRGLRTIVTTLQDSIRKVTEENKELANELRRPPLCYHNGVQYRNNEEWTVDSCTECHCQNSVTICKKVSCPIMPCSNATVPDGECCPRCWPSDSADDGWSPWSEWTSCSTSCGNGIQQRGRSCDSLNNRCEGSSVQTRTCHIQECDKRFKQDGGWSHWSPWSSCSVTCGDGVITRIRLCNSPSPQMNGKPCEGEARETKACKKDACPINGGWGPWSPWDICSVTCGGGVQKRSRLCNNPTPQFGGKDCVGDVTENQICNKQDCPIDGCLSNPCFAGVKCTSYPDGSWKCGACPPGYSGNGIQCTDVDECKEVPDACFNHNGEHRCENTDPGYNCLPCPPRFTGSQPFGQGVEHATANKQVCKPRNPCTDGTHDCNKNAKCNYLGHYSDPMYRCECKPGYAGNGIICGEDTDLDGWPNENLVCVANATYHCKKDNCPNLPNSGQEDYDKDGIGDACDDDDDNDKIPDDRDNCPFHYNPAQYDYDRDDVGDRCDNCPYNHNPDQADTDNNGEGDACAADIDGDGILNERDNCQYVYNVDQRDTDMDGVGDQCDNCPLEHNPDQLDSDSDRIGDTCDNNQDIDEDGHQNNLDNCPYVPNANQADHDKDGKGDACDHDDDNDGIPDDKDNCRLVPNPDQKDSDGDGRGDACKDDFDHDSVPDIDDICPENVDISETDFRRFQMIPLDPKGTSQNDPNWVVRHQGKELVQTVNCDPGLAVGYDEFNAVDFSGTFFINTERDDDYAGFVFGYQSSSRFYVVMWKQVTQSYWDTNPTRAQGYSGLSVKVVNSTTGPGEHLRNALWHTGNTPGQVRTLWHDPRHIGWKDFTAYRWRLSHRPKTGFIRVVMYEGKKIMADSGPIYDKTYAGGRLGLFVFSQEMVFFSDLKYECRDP

Question: Which “competition of biotin-angiocidin binding to TSP-1” value [1] does the source give for “CSVTCG (cysteine pairing not given here) [Cys-Ser-Val-Thr-Cys-Gly (SEQ ID NO: 1), TSP-1 peptide]” here?
Answer: The value was “effectively competed with TSP-1 for the biotin-angiocidin complex”.

Question: And the “peptide competition of TSP-1 receptor binding” value (“peptide competition” for short) [1]?
Answer: The value was “effectively inhibited binding”.

Question: Which “peptide competition” value [1] does the source give for KVWVLPI here?
Answer: The value was “inhibited the binding”.

Question: Which “direct binding to immobilized TSP-1” value (TSP-1 [2]) does the source give for “Pro-His-Ser-Arg-Asn (PHSRN) [Pro-His-Ser-Arg-Asn (SEQ ID NO: 10), negative control peptide, reference compound]” here?
Answer: The value was “did not”.

Question: With “V36-R42: the active site of the antisecretory factor (VCHSKTR; UniProt P55036 36-42, looked up, fragment) [reference compound]” as the substance, how does the “cell viability, angiocidin and fragments” value [3] read?
Answer: Its value is “had no effect”.

Question: With “VCTGSC (cysteine pairing not given here) [Val-Cys-Thr-Gly-Ser-Cys (SEQ ID NO: 15), scrambled peptide, negative control]” as the substance, how does the “competition of biotin-angiocidin binding to TSP-1” value [1] read?
Answer: The value was “had no effect”.

Question: For “Val-Cys(Acm)-His-Ser-Lys-Thr-Arg (VC(Acm)HSKTR)”, which “cell adhesion to immobilized peptide” value (B16-F10 Melanoma Cells) is on record?
Answer: The value was “cause the cells to adhere to the plates, with similar affinity to the positive controls fibronectin and TSP-1”.

Question: What about the “direct binding to immobilized TSP-1” value (TSP-1 [2]) of the same substance?
Answer: Its value is “bind directly to the immobilized TSP-1”.

Question: For “Val-Cys(Acm)-Thr-Gly-Ser-Cys(Acm) (VC(Acm)TGSC(Acm)) [scrambled peptide]”, which “extent of receptor binding, % of buffer control” value (receptor-TSP-1 complex) is on record?
Answer: The value was 88%.

Question: What does the source list for “carboxy terminal fragment: carboxy terminal (IIe248-Lys380) portion of angiocidin (SEQ ID NO: 25)”?
Answer: anti-endothelial activity compared to angiocidin ([3]; 37 μg/ml, overnight): had activity levels similar to the negative control; cell viability, angiocidin and fragments [3]: did not affect cell viability; binding to TSP-1 derivatized cuvette (TSP-1 [4]): show no binding activities

Question: “d-Gly-Cys(Acm)-Thr-Val-Ser-Cys(Acm) (GCTVSC; not fully specified (residues 2, 3, 4, 5, 6); printed as d-Gly-Cys(Acm)-Thr-Val-Ser-Cys(Acm); cysteine pairing not given here; also: d- prefix stated for the peptide (mirror image, D-orientation)) [mirror image acetylated peptide]” was tested. Which “peptide competition” value [1] did it give?
Answer: The value was “inhibited binding”.
